Changes are numbered by the printed parent chain. Names and notes keep the numbering of the source.
T1: human FcγRIIb receptor protein (R&D Systems) (human, UniProt P31994 46-217)
T1 construct: Analyte injected over antibodies captured on a protein A/G chip (Biacore); also called CD32b
T1 sequence (looked up): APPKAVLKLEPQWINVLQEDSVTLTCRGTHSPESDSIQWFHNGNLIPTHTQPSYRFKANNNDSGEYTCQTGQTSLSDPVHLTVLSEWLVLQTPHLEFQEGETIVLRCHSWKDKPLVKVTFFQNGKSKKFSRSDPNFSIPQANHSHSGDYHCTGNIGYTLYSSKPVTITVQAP

B1: H268D/K326D/L328Y (antibody, human IgG1, kappa)
heavy: EVQLVESGGGLVKPGGSLKLSCAASGYTFTSYVMHWVRQAPGKGLEWIGYINPYNDGTKYNEKFQGRVTISSDKSISTAYMELSSLRSEDTAMYYCARGTYYYGTRVFDYWGQGTLVTVSSASTKGPSVFPLAPSSKSTSGGTAALGCLVKDYFPEPVTVSWNSGALTSGVHTFPAVLQSSGLYSLSSVVTVPSSSLGTQTYICNVNHKPSNTKVDKKVEPKSCDKTHTCPPCPAPELLGGPSVFLFPPKPKDTLMISRTPEVTCVVVDVSDEDPEVKFNWYVDGVEVHNAKTKPREEQYNSTYRVVSVLTVLHQDWLNGKEYKCKVSNDAYPAPIEKTISKAKGQPREPQVYTLPPSREEMTKNQVSLTCLVKGFYPSDIAVEWESNGQPENNYKTTPPVLDSDGSFFLYSKLTVDKSRWQQGNVFSCSVMHEALHNHYTQKSLSLSPGK
light: DIVMTQSPATLSLSPGERATLSCRSSKSLQNVNGNTYLYWFQQKPGQSPQLLIYRMSNLNSGVPDRFSGSGSGTEFTLTISSLEPEDFAVYYCMQHLEYPITFGAGTKLEIKRTVAAPSVFIFPPSDEQLKSGTASVVCLLNNFYPREAKVQWKVDNALQSGNSQESVTEQDSKDSTYSLSSTLTLSKADYEKHKVYACEVTHQGLSSPVTKSFNRGEC
notes: HuAM4G7 IgG1 Fc variant
B2: H268D/L328F/I332E (antibody, human IgG1, kappa)
heavy: B1 heavy with D330K, Y332F, I336E
light: B1 light
notes: HuAM4G7 IgG1 Fc variant
B3: H268D/L328W/I332E (antibody, human IgG1, kappa)
heavy: B1 heavy with D330K, Y332W, I336E
light: B1 light
notes: HuAM4G7 IgG1 Fc variant
B4: H268D/L328Y/I332E (antibody, human IgG1, kappa)
heavy: B1 heavy with D330K, I336E
light: B1 light
notes: HuAM4G7 IgG1 Fc variant
B5: K326A (antibody, human IgG1, kappa)
heavy: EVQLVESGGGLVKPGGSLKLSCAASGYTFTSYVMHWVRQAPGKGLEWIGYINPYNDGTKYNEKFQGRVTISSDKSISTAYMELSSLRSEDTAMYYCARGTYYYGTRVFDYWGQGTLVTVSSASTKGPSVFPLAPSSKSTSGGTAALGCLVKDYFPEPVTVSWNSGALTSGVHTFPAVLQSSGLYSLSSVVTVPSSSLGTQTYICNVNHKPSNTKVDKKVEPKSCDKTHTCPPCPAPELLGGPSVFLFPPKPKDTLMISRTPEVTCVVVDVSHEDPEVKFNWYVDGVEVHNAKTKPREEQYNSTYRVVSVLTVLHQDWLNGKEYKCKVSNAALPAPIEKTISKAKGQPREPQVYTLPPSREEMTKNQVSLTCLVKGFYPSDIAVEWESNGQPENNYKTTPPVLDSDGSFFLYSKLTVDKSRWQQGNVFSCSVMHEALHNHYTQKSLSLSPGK
light: B1 light
notes: HuAM4G7 IgG1 Fc variant
B6: K326E (antibody, human IgG1, kappa)
heavy: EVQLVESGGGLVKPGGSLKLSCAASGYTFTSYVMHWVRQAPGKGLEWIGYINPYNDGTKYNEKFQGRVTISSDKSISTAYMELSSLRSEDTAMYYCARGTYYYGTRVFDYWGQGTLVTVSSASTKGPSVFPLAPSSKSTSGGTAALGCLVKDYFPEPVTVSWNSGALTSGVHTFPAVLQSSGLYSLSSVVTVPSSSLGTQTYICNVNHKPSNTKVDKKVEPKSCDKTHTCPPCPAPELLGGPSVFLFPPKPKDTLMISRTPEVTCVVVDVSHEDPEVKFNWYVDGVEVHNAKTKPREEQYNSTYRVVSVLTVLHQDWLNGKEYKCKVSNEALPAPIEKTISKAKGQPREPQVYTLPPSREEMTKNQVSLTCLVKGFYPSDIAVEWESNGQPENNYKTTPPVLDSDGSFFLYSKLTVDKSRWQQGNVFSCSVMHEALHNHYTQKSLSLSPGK
light: B1 light
notes: HuAM4G7 IgG1 Fc variant
B7: K326W (antibody, human IgG1, kappa)
heavy: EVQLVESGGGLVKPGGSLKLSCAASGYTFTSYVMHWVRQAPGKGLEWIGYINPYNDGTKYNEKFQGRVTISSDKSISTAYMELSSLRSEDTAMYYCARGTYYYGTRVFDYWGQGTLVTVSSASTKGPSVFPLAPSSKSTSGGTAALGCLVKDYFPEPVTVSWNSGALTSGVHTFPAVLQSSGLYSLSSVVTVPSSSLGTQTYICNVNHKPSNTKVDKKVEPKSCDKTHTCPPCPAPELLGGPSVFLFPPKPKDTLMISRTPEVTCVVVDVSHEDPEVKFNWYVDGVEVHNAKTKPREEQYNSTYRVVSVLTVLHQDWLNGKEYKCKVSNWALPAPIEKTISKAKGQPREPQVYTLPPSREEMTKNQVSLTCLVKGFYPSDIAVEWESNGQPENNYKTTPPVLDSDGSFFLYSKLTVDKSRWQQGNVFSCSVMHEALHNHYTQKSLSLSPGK
light: B1 light
notes: HuAM4G7 IgG1 Fc variant
B8: K326D/L328Y/I332E (antibody, human IgG1, kappa)
heavy: B1 heavy with D272H, I336E
light: B1 light
notes: HuAM4G7 IgG1 Fc variant
B9: H268E/L328Y/I332E (antibody, human IgG1, kappa)
heavy: B1 heavy with D272E, D330K, I336E
light: B1 light
notes: HuAM4G7 IgG1 Fc variant
B10: H268D/L328Y (antibody, human IgG1, kappa)
heavy: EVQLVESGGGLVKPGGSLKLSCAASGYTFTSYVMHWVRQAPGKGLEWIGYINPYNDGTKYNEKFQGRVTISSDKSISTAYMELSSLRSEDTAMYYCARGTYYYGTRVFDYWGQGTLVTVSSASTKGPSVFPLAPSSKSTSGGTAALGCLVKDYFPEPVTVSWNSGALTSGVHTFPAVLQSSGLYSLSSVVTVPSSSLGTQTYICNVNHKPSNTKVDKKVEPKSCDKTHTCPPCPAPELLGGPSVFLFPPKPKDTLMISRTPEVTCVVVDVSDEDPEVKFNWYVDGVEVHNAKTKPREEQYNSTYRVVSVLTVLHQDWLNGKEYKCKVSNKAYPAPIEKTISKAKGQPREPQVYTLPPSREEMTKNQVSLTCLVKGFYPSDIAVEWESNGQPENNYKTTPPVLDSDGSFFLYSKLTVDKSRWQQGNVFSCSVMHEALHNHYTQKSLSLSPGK
light: B1 light
notes: HuAM4G7 IgG1 Fc variant

Target: T1, human FcγRIIb receptor protein (R&D …)
Assay: SPR (Biacore)
Description: Variants were screened for receptor affinity using Biacore™ technology, also referred to as Biacore herein, a surface plasmon resonance (SPR) based technology for studying biomolecular interactions in real time. SPR measurements were performed using a Biacore 3000 instrument (Biacore, Piscataway, N.J.). A protein A/G (Pierce Biotechnology) CM5 biosensor chip (Biacore) was generated using a standard primary amine coupling protocol. All measurements were performed using HBS-EP buffer (10 mM HEPES pH 7.4, 0.15 M NaCl, 3 mM EDTA, 0.005% vol/vol surfactant P20, Biacore). Antibodies at 20 nM or 50 nM in HBS-EP buffer were immobilized on the protein A/G surface and FcγRs were injected. After each cycle, the surface was regenerated by injecting glycine buffer (10 mM, pH 1.5). Data were processed by zeroing time and response before the injection of FcγR and by subtracting appropriate nonspecific signals (response of reference channel and injection of running buffer). Kinetic analyses were performed by global fitting of binding data with a 1:1 Langmuir binding model using BIAevaluation software (Biacore).

Row | Binder | Fold FcγRIIb [fold] | binding result
1 | B1 | 18.6 | –
2 | B2 | 12.3 | –
3 | B3 | 39.8 | –
4 | B4 | 4.89 | –
5 | B5 | – | no binding
6 | B6 | 6.09 | –
7 | B7 | 3.04 | –
8 | B8 | 2.65 | –
9 | B9 | 8.53 | –
10 | B10 | 1.91 | –

Source: patent publication US20170355766A1 (Xencor, published 2017)
